From US20120065123A1, “Synthetic Antibodies” (priority 2009, published 2012)
Where no end group is shown, it is not given here.

B1: synbody comprising TRF-26 and TRF-23 (Example 9) (designed binder)
peptide 1: AHKVVPQRQIRHAYNRYGSG
peptide 2: FRGWAHIFFGPHVIYRGGSG
modifications: not fully specified (bridges); also: both C-termini joined to the alpha and epsilon amines of a lysine linker

Biological target: transferrin
Test: SPR steady state

T100 sequence (P02787 20-698): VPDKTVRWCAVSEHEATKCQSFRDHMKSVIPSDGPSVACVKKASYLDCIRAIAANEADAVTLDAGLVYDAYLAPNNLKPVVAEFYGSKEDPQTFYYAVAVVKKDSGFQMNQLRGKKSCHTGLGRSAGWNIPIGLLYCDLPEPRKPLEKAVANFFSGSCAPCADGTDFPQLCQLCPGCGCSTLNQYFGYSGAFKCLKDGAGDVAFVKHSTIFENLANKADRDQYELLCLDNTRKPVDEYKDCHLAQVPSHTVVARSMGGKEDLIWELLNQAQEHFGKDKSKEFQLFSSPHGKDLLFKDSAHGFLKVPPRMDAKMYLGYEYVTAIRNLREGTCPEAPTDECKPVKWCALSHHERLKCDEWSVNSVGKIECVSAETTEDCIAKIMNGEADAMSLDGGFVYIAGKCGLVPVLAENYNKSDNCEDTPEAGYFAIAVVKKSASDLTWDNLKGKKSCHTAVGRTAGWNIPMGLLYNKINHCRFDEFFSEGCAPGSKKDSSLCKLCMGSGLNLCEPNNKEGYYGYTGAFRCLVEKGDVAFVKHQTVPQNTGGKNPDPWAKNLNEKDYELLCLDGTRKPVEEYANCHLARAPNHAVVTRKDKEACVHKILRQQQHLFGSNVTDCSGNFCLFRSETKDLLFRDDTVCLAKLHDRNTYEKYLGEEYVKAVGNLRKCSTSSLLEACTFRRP

Row | fold improvement of affinity against the original peptide TRF26 [fold] | Binder
1 | > 10 | AHKVVPQRQMRHAYSRYGSC [TBPM023]

Biological target: transferrin
Test: against the TRF26 lead

Row | Component Binding ΔG Contribution [kcal/mol] | Kd Fold-Change Relative to Lead [fold] | Binder
2 | -1.37 | 10 | AHKVVYQRQIRHAYNRYGSC [TRF26 P6Y point-mutant]
3 | -1.29 | 8.8 | AHKVVPQRQIRFAYNRYGSC [TRF26 H12F point-mutant]
4 |  | 190 | AHKVVYQRQIRFAYNRYGSC [TRF26 P6Y+H12F double mutant]

Biological target: transferrin
Test: SPR kinetics, transferrin immobilised

Row | Kd [µM] | Binder
5 | 0.15 | B1

Biological target: Tumor Necrosis Factor-alpha (TNF-α)
Sequence (P01375 77-233): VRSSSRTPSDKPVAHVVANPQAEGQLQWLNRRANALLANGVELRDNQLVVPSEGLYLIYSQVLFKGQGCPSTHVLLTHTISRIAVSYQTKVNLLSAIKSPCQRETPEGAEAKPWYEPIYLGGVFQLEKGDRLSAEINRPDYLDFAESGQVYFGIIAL
Test: fluorescence anisotropy

Row | Binder | Kd [µM]
6 | FERSYLKMPWKFLQSRQGSC (modifications not checked) [TNF1-opt (D4S+P5Y+M7K+S11K quadruple mutant of TNF1)] | 1.1

Biological target: Tumor Necrosis Factor-alpha (TNF-α)
Test: SPR kinetic fits of sensorgrams

Row | Binder | koff [s⁻¹]
7 | FERSYLKMPWKFLQSRQGSC (modifications not checked) [TNF1-opt (D4S+P5Y+M7K+S11K quadruple mutant of TNF1)] | 0.2

Biological target: Tumor Necrosis Factor-alpha (TNF-α)
Test: from SPR dissociation constants

Row | Binder | difference in observed binding energy against the D4S+P5Y+S11K mutant [kcal/mol] | difference in observed binding energy against the P5Y+M7K mutant [kcal/mol] | difference in observed binding energy against the P5Y+S11K mutant [kcal/mol]
8 | FERSYLKMPWKFLQSRQGSC (modifications not checked) [TNF1-opt (D4S+P5Y+M7K+S11K quadruple mutant of TNF1)] | -0.94 | -1.73 | -1.66
9 | FERSYLMMPWKFLQSRQGSC (modifications not checked) [TNF1 D4S+P5Y+S11K triple mutant] |  |  | -0.72

Biological target: transferrin
Test: peptide microarray, rank by score; no organic prewash

Row | Rank - non-prewash [rank] | Binder
10 | 18 | GQTQFAMHRFQQWYKIKGSC [TRF20]
11 | 736 | APYAPQQIHYWSTLGFKGSC [TRF25]
12 | 71 | SVKPWRPLLTGNRWLNSGSC [TRF24]
13 | 2720 | FRGWAHIFFGPHVIYRGGSC [TRF23]
14 | 1290 | LDPLFNTSIMVNWHRWMGSC [TRF27]
15 | 596 | AHKVVPQRQIRHAYNRYGSC [TRF26]
16 | 84 | QYHHFMNLKRQGRAQAYGSC [TRF21]
17 | 711 | HAYKGPGDMRRFNHSGMGSC [TRF22]

Biological target: Tumor Necrosis Factor-alpha (TNF-α)
Test: SPR equilibrium; against the TNF1 lead

Row | Binder | Component Binding ΔG Contribution [kcal/mol] | Kd Fold-Change Relative to Lead [fold]
18 | FERDPLKMPWSFLQSRQGSC (modifications not checked) [TNF1 M7K point-mutant] | -0.72 | 2.8
19 | FERSYLKMPWSFLQSRQGSC (modifications not checked) [TNF1 D4S+P5Y+M7K triple mutant] |  | 11
20 | FERYPLMMPWKFLQSRQGSC (modifications not checked) [TNF1 D4Y+S11K double mutant] |  | 17
21 | FERDYLKMPWSFLQSRQGSC (modifications not checked) [TNF1 P5Y+M7K double mutant] |  | 5.8
22 | FERYPLMMPWSFLQSRQGSC (modifications not checked) [TNF1 D4Y point-mutant] | -0.74 | 3.6
23 | FERSYLKMPWKFLQSRQGSC (modifications not checked) [TNF1-opt (D4S+P5Y+M7K+S11K quadruple mutant of TNF1)] |  | 100
24 | FERYPLKMPWSFLQSRQGSC (modifications not checked) [TNF1 D4Y+M7K double mutant] |  | 9.4
25 | FERDYLMMPWSFLQSRQGSC (modifications not checked) [TNF1 P5Y point-mutant] | -0.58 | 2.7
26 | FERDYLMMPWKFLQSRQGSC (modifications not checked) [TNF1 P5Y+S11K double mutant] |  | 6.6
27 | FERSYLMMPWKFLQSRQGSC (modifications not checked) [TNF1 D4S+P5Y+S11K triple mutant] |  | 23
28 | FERDPLMMPWKFLQSRQGSC (modifications not checked) [TNF1 S11K point-mutant] | -0.82 | 3.9

Biological target: transferrin
Test: SPR steady state, Biacore T100, transferrin immobilised

Row | Kd [µM] | Binder
29 | 60 | APYAPQQIHYWSTLGFKGSC [TRF25]
30 | 50 | SVKPWRPLLTGNRWLNSGSC [TRF24]
31 | 50 | FRGWAHIFFGPHVIYRGGSC [TRF23]
32 | 100 | AHKVVPQRQIRHAYNRYGSC [TRF26]
33 | 60 | QYHHFMNLKRQGRAQAYGSC [TRF21]
34 | 150 | KEDNPGYSSEQDYNKLDGSC [TRF19]

Biological target: transferrin
Test: peptide microarray, rank by score; with organic prewash

Row | Rank -- prewash [rank] | Binder
35 | 289 | GQTQFAMHRFQQWYKIKGSC [TRF20]
36 | 603 | APYAPQQIHYWSTLGFKGSC [TRF25]
37 | 958 | SVKPWRPLLTGNRWLNSGSC [TRF24]
38 | 2090 | FRGWAHIFFGPHVIYRGGSC [TRF23]
39 | 3320 | LDPLFNTSIMVNWHRWMGSC [TRF27]
40 | 436 | AHKVVPQRQIRHAYNRYGSC [TRF26]
41 | 5 | QYHHFMNLKRQGRAQAYGSC [TRF21]
42 | 61 | HAYKGPGDMRRFNHSGMGSC [TRF22]
43 | 9600 | KEDNPGYSSEQDYNKLDGSC [TRF19]

Biological target: Tumor Necrosis Factor-alpha (TNF-α)
Test: SPR kinetic fits of several sensorgrams

Row | Binder | Kd [µM]
44 | FERSYLKMPWKFLQSRQGSC (modifications not checked) [TNF1-opt (D4S+P5Y+M7K+S11K quadruple mutant of TNF1)] | 0.7

Biological target: transferrin
Test: affinity characterization of the peptide; method not named

Row | Binding ΔG [kcal/mol] | Kd [µM] | Binding ΔG (observed) [kcal/mol] | Binder
45 | -6.93 | 8.6 |  | AHKVVYQRQIRHAYNRYGSC [TRF26 P6Y point-mutant]
46 | -6.85 | 9.7 |  | AHKVVPQRQIRFAYNRYGSC [TRF26 H12F point-mutant]
47 |  | 0.5 | -8.68 | AHKVVYQRQIRFAYNRYGSC [TRF26 P6Y+H12F double mutant]
48 | -5.56 | 85 |  | AHKVVPQRQIRHAYNRYGSC [TRF26]

Biological target: Tumor Necrosis Factor-alpha (TNF-α)
Test: SPR screen at 50 µM peptide, Biacore A100

Row | Binder | fold enhancement in SPR binding response relative to TNF1 [fold]
49 | FERDPLKMPWSFLQSRQGSC (modifications not checked) [TNF1 M7K point-mutant] | > 15
50 | FERYPLMMPWSFLQSRQGSC (modifications not checked) [TNF1 D4Y point-mutant] | > 15
51 | FERDYLMMPWSFLQSRQGSC (modifications not checked) [TNF1 P5Y point-mutant] | > 15
52 | FERDPLMMPWKFLQSRQGSC (modifications not checked) [TNF1 S11K point-mutant] | > 15

Biological target: transferrin
Test: affinity characterization of the peptide; method not named
Remark: another data set of the same source

Row | Kd [µM] | Binder
53 | 9.8 | AHKVVPQRQIRFAYNRYGSC [TRF26 H12F point-mutant]

Biological target: Tumor Necrosis Factor-alpha (TNF-α)
Test: SPR equilibrium, Biacore A100, TNF-α captured on chip

Row | Binder | Binding ΔG [kcal/mol] | Kd [µM] | Binding ΔG (observed) [kcal/mol]
54 | FERDPLKMPWSFLQSRQGSC (modifications not checked) [TNF1 M7K point-mutant] | -5.93 | 57 | 
55 | FERSYLKMPWSFLQSRQGSC (modifications not checked) [TNF1 D4S+P5Y+M7K triple mutant] |  | 14 | -6.63
56 | FERYPLMMPWKFLQSRQGSC (modifications not checked) [TNF1 D4Y+S11K double mutant] |  | 9.3 | -6.67
57 | FERDYLKMPWSFLQSRQGSC (modifications not checked) [TNF1 P5Y+M7K double mutant] |  | 27 | -6.24
58 | FERYPLMMPWSFLQSRQGSC (modifications not checked) [TNF1 D4Y point-mutant] | -5.95 | 44 | 
59 | FERSYLKMPWKFLQSRQGSC (modifications not checked) [TNF1-opt (D4S+P5Y+M7K+S11K quadruple mutant of TNF1)] |  | 1.6 | -7.97
60 | FERYPLKMPWSFLQSRQGSC (modifications not checked) [TNF1 D4Y+M7K double mutant] |  | 17 | -6.54
61 | FERDYLMMPWSFLQSRQGSC (modifications not checked) [TNF1 P5Y point-mutant] | -5.79 | 58 | 
62 | FERDYLMMPWKFLQSRQGSC (modifications not checked) [TNF1 P5Y+S11K double mutant] |  | 24 | -6.63
63 | FERSYLMMPWKFLQSRQGSC (modifications not checked) [TNF1 D4S+P5Y+S11K triple mutant] |  | 7 | -7.03
64 | FERDPLMMPWKFLQSRQGSC (modifications not checked) [TNF1 S11K point-mutant] | -6.03 | 40 | 

Biological target: transferrin
Test: SPR steady state affinity model, Biacore T100, transferrin immobilised (9758 RU)

Row | Kd [µM] | Binder
65 | 150 | GHKVVPQRQIRHAYNRYGSC [TBPL005]
66 | 11.6 | AHKVVPQRQMRHAYSRYGSC [TBPM023]
67 | 150 | GHKVVPQRQMRHAYNRNGSC [TBPL025]

Biological target: transferrin
Test: peptide microarray of about 10,000 peptides, rank by score (555 nm intensity squared over 647 nm intensity); no organic prewash

Row | Rank - non-prewash [rank] | Binder
68 | 5010 | KEDNPGYSSEQDYNKLDGSC [TRF19]
